Results on 1 molecule are retold here after US6423827 (UNIVERSITY OF MEDICINE AND DENTISTRY OF NEW JERSEY, dated 2002).

This assay deals with T1, recombinant rat LAMP (limbic system-associated membrane protein) expressed at the surface of CHO cells (CHOL … (rat, UniProt Q62813 29-315, PI (GPI) linkage to the membrane at the processed C-terminus, at or near Asn315)); N-linked glycosylation (apparent 55 kDa)).
T1 construct: The C-terminal limit 315 is only 'at or near'; also called LAMP cDNA transfected cells
T1 sequence: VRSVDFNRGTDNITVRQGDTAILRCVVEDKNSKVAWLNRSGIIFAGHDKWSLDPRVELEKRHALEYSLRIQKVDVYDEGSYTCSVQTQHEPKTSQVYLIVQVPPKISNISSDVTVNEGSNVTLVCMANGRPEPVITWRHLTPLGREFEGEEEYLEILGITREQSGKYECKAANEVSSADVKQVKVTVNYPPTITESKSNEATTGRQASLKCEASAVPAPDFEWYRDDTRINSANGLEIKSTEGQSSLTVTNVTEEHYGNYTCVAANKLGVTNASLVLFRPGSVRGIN
Put plainly: fluorescent beads coated with native LAMP, incubated with CHO cells expressing rat LAMP. The procedure:
To test whether CHO_L cells can bind external LAMP, fluorescent synthetic beads of 2 μm diameter, which have reactive sites for covalently linking protein (Covasphere™ beads, Duke Scientific, Palo Alto, Calif.), were coated with native LAMP that had been released from hippocampal membranes with PI-specific phospholipase C. The beads were incubated with the recombinant cells and the extent of binding to the cell surface determined.

B1: native rat LAMP from hippocampal membranes (receptor)
chain: VRSVDFNRGTDNITVRQGDTAILRCVVEDKNSKVAWLNRSGIIFAGHDKWSLDPRVELEKRHALEYSLRIQKVDVYDEGSYTCSVQTQHEPKTSQVYLIVQVPPKISNISSDVTVNEGSNVTLVCMANGRPEPVITWRHLTPLGREFEGEEEYLEILGITREQSGKYECKAANEVSSADVKQVKVTVNYPPTITESKSNEATTGRQASLKCEASAVPAPDFEWYRDDTRINSANGLEIKSTEGQSSLTVTNVTEEHYGNYTCVAANKLGVTNASLVLFRPGSVRGIN
modifications: N-linked glycosylation (apparent 64-68 kDa)
notes: The C-terminal limit 315 is only 'at or near'; also called native LAMP; external LAMP
Consider B1, for which the binding result was “binds”.
